Laboratory results taken from the nanobody polyreactivity screen of Harvey et al. (2022).

Assay: yeast display, Sf9 membrane polyspecificity reagent, FACS + sequencing; frameworks hold sequencing errors
In short: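 Nanobodies came from a synthetic yeast display library in Saccharomyces cerevisiae BJ5465, induced with galactose for 36–48 hours and stained for 1 hour at 4 °C with 10% biotinylated, detergent-solubilized Sf9 membrane reagent. Cells were enriched on streptavidin microbeads and then FACS-sorted, with low and high (top ~1%) gates set on anti-HA fluorescence for expression and streptavidin fluorescence for reagent binding. Each polyreactivity label reflects the gate a clone came from. Genes were amplified by colony PCR, sequenced by MiSeq 2 × 250 and filtered by CDR length.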

Sequence | polyreactivity (PSR sort gate)
QVQIVESGGGLVQAVGSLRLSCAASGFTFTYNAMGWYRQAPGKERELVAAISSGGRTYYADSVKGRFTISRDNAKNTVYLQMNSLKPEDTAVYYCNADPDQYTLRSITNDEDYWGQGTQVTVSS | low polyreactivity
QVQLVESGGGLVQAGGSLRLSCAASGRTFFKYAMGWYRQAPGKERELVATITSSGGITYADSVKGRFTISRDNAKNTVYLQMNSLKPEDTAVYYCNARVWVTHYSELNYWGQGTQLTVSS | low polyreactivity
QVQLVESGGGLVQAGGSLRLSCAASGSTFASYAMGWYRQAPGKEREFVAAISRSGGSTYYADSVKGRFTISRDNAKNTVYLQMNSLKPEDTAVYYCAARSPSADEYYYWGQGTQVTVSS | low polyreactivity
QVQLVESGGGLVQAGGSLRLSCAASGFTFPVNAMGWYRQAPGKERELVAAITSGGRTNYADSVKGRFTISRDNAKNTVYLQMNSLKPEDTAVYYCAAKFGYYWNSRTSGYWGQGTQVTVSS | high polyreactivity
QVQLVESGGGIVQAGGSLRLSCAASGSTFYSYAMGFYRQAPGKERELVAAISWDGGRTYYADSVKGRFTISRDNAKNTVYLQMNSLKPEDTAVYYCAAAYPTYRHYYWGQGTQVTVSS | low polyreactivity
QVQLVESGVGLVQAGGSLRLSCAASGLIFPYYAMGWYRQAPGKERELVAAITSGSGTYYADSVKGRFTISRDNGKNTVYIQMNSLKPEDTAVYYCNAYILFWEYGYWGQGTQVTVSS | high polyreactivity
QVQLVESGGGLVQAGGSLRLSCAASGRIFWFYTMGWYRQAPGKERELVAAISTSGGSTYYADSVKGRFTISRDNAKNTVYLQMNSLKPEDTAVYYCAAQNGYYPQHDYWGQGTQVTVSS | high polyreactivity
QVQLLESGGGLVQAGGSLRLSCAASGRIFPYNAMGWYRQAPGKERELVAAISRSGGRTYYADSVKGRFTISRDNAKNTVYLQRNSLKPEDTAVYYCAAKYQAGENYWGQGTQVTVSS | high polyreactivity
QDQLVESRGGLVQAGGSLRLSCAASGLIFWRYTMGWYSQAPGKERELVAAINRSGGSTYYADSVKGRFTISRDNAKNTVYFQMNSLKPDDPAVYYCAASGYRYPIDGDYWGLGTQVTVSS | high polyreactivity
QVQLVESGGGLVQAGGSLRLSCPASGSTLVYNDMGWYRQAPGKEREFVAAIRSNDGSTYYADSVKGRFTISRDNAKNTVYLQMNSLKPEDTAVYYCNKDVWDGYDWPEFDYWGQGTQVTVSS | low polyreactivity
QVQLVESGGGLVQAGGSLRLSCAASGRIFKVYAMGWYRQAPGKERELVAVITGGGSTNYADSVKGRFTISRDNAKNTVYLQMNSLKPEDTAVYYCATEGYGHGGETDGGVYSDLGYWGQGTQVTVSS | low polyreactivity
QVQLVESGGGLVQAGGSLRLSCAASGRTFGGYAMGWYRQAPGKETQLVATITSGGSTYYADSVKGRFTISRDNAKNTVYLQMTSLKPEDTAVYYCAADTYFETSTRAIPSNDYWGQGTQVTVSS | low polyreactivity
QVQLVESGGGLGQAGGSLRLSCAASGRTFRYYAKGWYRQAPGKERELVAAINRGGSTSYADSVKGRFTISRDNAKNTVYLQMNSLKPEDTAVYYCNVDKYRLVGFHSPYDYWGQGTQVTVSS | high polyreactivity
QVQLVESGGGVVQAGGSLRLSCAASGRIFHRYTMGWYRQARGKERELVAVISGLGGSTYYADSVKGRFTISRDNAKNTVYLQMNSLKPEDTAVYYCNRVGKYWSSDDSWGQGTQVTVSS | high polyreactivity
QVQLVESGGGLVQAGGSLRLSCAASGLTFGSYAMGWYRQAPGKERELVAAISRSGGSTYYADSVMGRFTISRDNAKNTVYLQMNSLKPEDTAVYYCNAVNRYYAPTDRRVGYDYWGQGTQVTVSS | high polyreactivity
QVQLVESGGGLVQAGGSLRLSCAASGRIFRAYAMGWYRQAPGKERELVAAIRGRGGSTYADSVKGRFTISRDNAKNTVYLQMNSLKPEDTAVYYCAAGYYRYAWPYYGGRDYWGQGTQVTVSS | high polyreactivity

Sequence | polyreactivity (PSR sort gate)
QVQLVESGGGLVQAGGSLRLSCAASGSIFESNGMGCYRQAPGKERELVASISNGDITYFADSVKGRFTISRDNAKNTVYLQMNSLKPEDTAVYYCAATLYRNYVIFRYDYSGQGTQVTVSS | low polyreactivity
QVQLVESGGGLVQAGGSLRLSCAASGRIFDYYAMGWYRQAPGKERELVAAISLIGASTYYADSVKGRFTISRDNAKNTVYLQMNSLKPEDTAVYYCAAEFYLRRFKVTKRYWFDYWGQGTQVTVSS | low polyreactivity
QVQLVESGGGLVQAGGSLRLSCAASGNIFCINTMGWYRQAPGKERELVAAIDASDGSTYYADSVKGRFTISRDNAKNTVYLQMNSLKPEDTAVYYCATRSGYDSVYYFYTLWYYYWGQGTQVTVCS | low polyreactivity
QVHLVESGGGLVQAGGSLRLSCAASGSIFFGYTMGWYRQAPGKERELVAAITRRGGSTYYADSVKGRFTISRDNAKNTVYLQMNSLKPVDTAVYYCAAEVRRYVIVPYYYWGQGTQVTVSS | high polyreactivity
QVQLVESGGGIVQAGGSLRLSCAASGLSRGVNVMGLYRQAPGKERELVAAISGAGRTYYADSVKGRFTISRDNAKNTVFLQMNSLKPEDTAVYYCASVRRRLSLTYDYWGQGTQVTVSS | high polyreactivity
QVQLVESGGGLVQAGGSLRLSCAASGSIFWYNTMGWYRQAPGKERELVAAITFSGGSTYYADSVKERFTISRDNAKNTVYLQMNSLKPEDTAVYYCAAVFYSAVGYYYWGQGTQVTVSS | low polyreactivity
QVQLVESGGGLVQAGGSLRLSSAASGGIFRIYGMGSYRQAPGKERELVADISIGGRTTYADSVKGRFTISRDNAKNTVYLQMHSLKPEDTAVYYCKTPYWYRIGQRLAWYDYWGQGTQVTVSS | low polyreactivity
QVQLVDSGGGLVQAGGSLRLTCAASGIIFRLYGMGWYRQAPGKEREFVATITWRGGRTNYADSVKGRFTISRDNAKNTVYLQMNSLKPEDTAVYYCAKVVRYARSNEYDSWGQGTQVTVSS | low polyreactivity
QVQRVESGGGLVQAGGSLRLSSASSGFTFRSYAMGWYRQEPGKERELVAVIASSGGSTYYADSVKGRFTFSRDNAKNTVYLQMNSLKPEDTAVYYCNRRPATRAYLYDYWGQGTQVTVSW | high polyreactivity
QVQLVESGGGLVQAGGSLSLSCAASGITFIHNAMGLYIQAPGKERELVAAITPSDGSTYYADSVKGRFTISRDNAKNTVFLQMNSLKPEDTAVYYCAARGRHSGYYSVPYYYWGQGTQVTVSS | low polyreactivity
QVQLVESGGGLVQAGGSLRISCVASARTFRWYAMGWYRQAPGKERELVATITLNGGSTYYADSVKGRFTISRDNAKNNVYLQMNSLKPEDTAVYYCNRGTNVVRRGVYSFGYDYWGQGTQVTVSS | low polyreactivity
QVQLVESGGGLVKAGGSLRLSCAASGRTFGNYAMGWYRQAPGKERELVASMNTGGSTSYADSVKGRFTISRDNAKNTVYLQMNSLKPEDTAVYYCARSFFWYRLHDYWGQGTQVTVSS | low polyreactivity
QVQLVESGGGLVQAGGSLRLSCAASGTFQSNAMGRYRPAPGKERELVAAITSGGSTNYADSVKGRFTISRDNAKNTVYLQMNSLKPEDTAVYYCAAVRRYRASRGSLYYYWGLGTQVTVSS | high polyreactivity
QVQIVESGGALVQAGGSLRLSCAASGITLRPYAMGWYRQAPGKERELVAAITSSGGSTYYADSVKGRFTISRDIAKNTVYLLMNSLIPEDTAVYYCAALRVYAGDYWGQGTQVTVSS | low polyreactivity
QVRLVESGGGLVQAGGSLRLSCAASGSTFNNYDMGWYRQAPGKERELVAAYADSVKGRFTISRDNAKNTVYLQMNRLKPEDTADYYCAAVREKTLYYLSRFDYWGQGTQVTVSS | low polyreactivity
